Publication PMC11210195 (Frontiers in Immunology, 2024)

Tests used:
[1] = target: the molecule itself; assay: SEC-MALS; TRIM21-CC-PS alone, 1 mg/mL, 50 µg injected, Superdex200 Increase 10/300 GL, PBS pH 7.4
cytokine-Fc Fusion Y436A [2] = target: cytokine-Fc Fusion Y436A (human); assay: SPR; cytokine-Fc Fusion constructs captured via anti-PGLALA F(ab')2 fragment at low density; TRIM21-CC-PS injected; 25°C, HBS-EP+; apparent (avidity) constants; details: both partners purified
cytokine-Fc Fusion Y436A [3] = target: cytokine-Fc Fusion Y436A (human); assay: SPR; cytokine-Fc Fusion constructs captured via anti-PGLALA F(ab')2 fragment (35-40 RU); PRYSPRY injected, two-fold series; 25°C, HBS-EP+ pH 7.4; 1:1 fit; details: both partners purified

| avidity enhancement (K_(D,AFFINITY)/K_(D,AVIDITY)) (cytokine-Fc Fusion Y436A [2]) [fold] | fold weaker against the WT avidity (cytokine-Fc Fusion Y436A [2]) [fold] | fold change of off rate against WT (cytokine-Fc Fusion Y436A [3]) [fold] | fold change of on rate against WT (cytokine-Fc Fusion Y436A [3]) [fold] | fold decrease of affinity against mAb1 Fc WT (cytokine-Fc Fusion Y436A [3]) [fold] | t1/2 of dissociation (cytokine-Fc Fusion Y436A [3]) [s] | Binder | stoichiometry N [1] |
| --- | --- | --- | --- | --- | --- | --- | --- |
| 14 | 766 |  |  |  |  | TRIM21-coiled-coil-PRYSPRY (TRIM21-CC-PS) (domain or fragment, human, UniProt P19474-1 128-475, looked up, biotinylated where it was captured via monovalent streptavidin, human TRIM21 (Ro52, RNF81), coiled-coil and PRYSPRY domains, amino acids 128 to 475 of isoform 1; also called PRYSPRY-coiled-coil variant; source: E. coli BL21 DE3, purified (Ni-NTA, Superdex S-200 gel filtration) by Proteros Biostructures; not shown: His-Avi-Tag (via a (4GS)1 linker), C-terminal, kept) LEEAAQEYQEKLQVALGELRRKQELAEKLEVEIAIKRADWKKTVETQKSRIHAEFVQQKNFLVEEEQRQLQELEKDEREQLRILGEKEAKLAQQSQALQELISELDRRCHSSALELLQEVIIVLERSESWNLKDLDITSPELRSVCHVPGLKKMLRTCAVHITLDPDTANPWLILSEDRRQVRLGDTQQSIPGNEERFDSYPMVLGAQHFHSGKHYWEVDVTGKEAWDLGVCRDSVRRKGHFLLSSKSGFWTIWLWNKQKYEAGTYPQTPLHLQVPPCQVGIFLDYEAGMVSFYNITDHGSLIYSFSECAFTGPLRPFFSPGFNDGGKNTAPLTLCPLNIGSQGSTDY | 2 |
|  |  | 23 | 8 | 180 | 0.3 | TRIM21 PRYSPRY domain (domain or fragment, human, UniProt P19474-1 277-475, looked up, biotinylated where it was captured via monovalent streptavidin, human TRIM21 (Ro52, RNF81), PRYSPRY domain, amino acids 277 to 475 of isoform 1; also called PS; TRIM21 PRYSPRY variant; source: E. coli BL21 DE3, purified (Ni-NTA, Superdex S-200 gel filtration) by Proteros Biostructures; not shown: His-Avi-Tag (via a (4GS)1 linker), C-terminal, kept) GLKKMLRTCAVHITLDPDTANPWLILSEDRRQVRLGDTQQSIPGNEERFDSYPMVLGAQHFHSGKHYWEVDVTGKEAWDLGVCRDSVRRKGHFLLSSKSGFWTIWLWNKQKYEAGTYPQTPLHLQVPPCQVGIFLDYEAGMVSFYNITDHGSLIYSFSECAFTGPLRPFFSPGFNDGGKNTAPLTLCPLNIGSQGSTDY |  |
